The values that follow are results of earlier work, collected in PMC9796269 (British Journal of Clinical Pharmacology, 2022).

Take “CNP‐22: endogenous C‐type natriuretic peptide form, susceptible to Neprilysin degradation”: the “calculated half‐life (clearance in human plasma)” value is 2.6 min.
